Test results as given in doi:10.1101/2024.04.26.591257 (bioRxiv, 2024).

B1: PLT3-mCh (PLETHORA 3 fused to mCherry) (natural protein, Arabidopsis thaliana, UniProt Q52QU2 1-581, looked up)
chain: MMAPMTNWLTFSLSPMEMLRSSDQSQFVSYDASSAASSSPYLLDNFYGWSNQKPQEFFKEEAQLAAAASMADSTILTTFVDPQSHHSQNHIPKLEDFLGDSSSIVRYSDNSQTDTQDSSLTQIYDPRHHHNQTGFYSDHHDFKTMAGFQSAFSTNSGSEVDDSASIGRTHLAGDYLGHVVESSGPELGFHGGSTGALSLGVNVNNNTNHRNDNDNHYRGNNNGERINNNNNNDNEKTDSEKEKAVVAVETSDCSNKKIADTFGQRTSIYRGVTRHRWTGRYEAHLWDNSCRREGQARKGRQGGYDKEDKAARAYDLAALKYWNATATTNFPITNYSKEVEEMKHMTKQEFIASLRRKSSGFSRGASIYRGVTRHHQQGRWQARIGRVAGNKDLYLGTFATEEEAAEAYDIAAIKFRGINAVTNFEMNRYDVEAIMKSALPIGGAAKRLKLSLEAAASSEQKPILGHHQLHHFQQQQQQQQLQLQSSPNHSSINFALCPNSAVQSQQIIPCGIPFEAAALYHHHQQQQQHQQQQQQQNFFQHFPANAASDSTGSNNNSNVQGTMGLMAPNPAEFFLWPNQSY
B2: TPL-mCh (TOPLESS fused to mCherry) (natural protein, Arabidopsis thaliana, UniProt Q94AI7 1-1131, looked up)
chain: MSSLSRELVFLILQFLDEEKFKETVHKLEQESGFFFNMKYFEDEVHNGNWDEVEKYLSGFTKVDDNRYSMKIFFEIRKQKYLEALDKHDRPKAVDILVKDLKVFSTFNEELFKEITQLLTLENFRENEQLSKYGDTKSARAIMLVELKKLIEANPLFRDKLQFPTLRNSRLRTLINQSLNWQHQLCKNPRPNPDIKTLFVDHSCGPPNGARAPSPVNNPLLGGIPKAGGFPPLGAHGPFQPTASPVPTPLAGWMSSPSSVPHPAVSAGAIALGGPSIPAALKHPRTPPTNASLDYPSADSEHVSKRTRPMGISDEVNLGVNMLPMSFSGQAHGHSPAFKAPDDLPKTVARTLSQGSSPMSMDFHPIKQTLLLVGTNVGDIGLWEVGSRERLVQKTFKVWDLSKCSMPLQAALVKEPVVSVNRVIWSPDGSLFGVAYSRHIVQLYSYHGGEDMRQHLEIDAHVGGVNDISFSTPNKQLCVITCGDDKTIKVWDAATGVKRHTFEGHEAPVYSVCPHYKENIQFIFSTALDGKIKAWLYDNMGSRVDYDAPGRWCTTMAYSADGTRLFSCGTSKDGESFIVEWNESEGAVKRTYQGFHKRSLGVVQFDTTKNRYLAAGDDFSIKFWDMDAVQLLTAIDGDGGLQASPRIRFNKEGSLLAVSGNENVIKIMANSDGLRLLHTFENISSESSKPAINSIAAAAAAAATSAGHADRSANVVSIQGMNGDSRNMVDVKPVITEESNDKSKIWKLTEVSEPSQCRSLRLPENLRVAKISRLIFTNSGNAILALASNAIHLLWKWQRNERNATGKATASLPPQQWQPASGILMTNDVAETNPEEAVPCFALSKNDSYVMSASGGKISLFNMMTFKTMATFMPPPPAATFLAFHPQDNNIIAIGMDDSTIQIYNVRVDEVKSKLKGHSKRITGLAFSNVLNVLVSSGADAQLCVWNTDGWEKQRSKVLPLPQGRPNSAPSDTRVQFHQDQAHFLVVHETQLAIYETTKLECMKQWAVRESLAPITHATFSCDSQLVYASFMDATVCVFSSANLRLRCRVNPSAYLPASLSNSNVHPLVIAAHPQEPNMFAVGLSDGGVHIFEPLESEGKWGVAPPAENGSASGAPTAPSVGASASDQPQR
B3: WOX5-mCh (WUSCHEL-RELATED HOMEOBOX 5 fused to mCherry) (natural protein, Arabidopsis thaliana, UniProt Q8H1D2 1-182, looked up)
chain: MSFSVKGRSLRGNNNGGTGTKCGRWNPTVEQLKILTDLFRAGLRTPTTDQIQKISTELSFYGKIESKNVFYWFQNHKARERQKRRKISIDFDHHHHQPSTRDVFEISEEDCQEEEKVIETLQLFPVNSFEDSNSKVDKMRARGNNQYREYIRETTTTSFSPYSSCGAEMEHPPPLDLRLSFL
B4: BRAVO-mCh (BRAVO fused to mCherry) (natural protein, Arabidopsis thaliana, UniProt Q6R053 1-323, looked up)
chain: MNPNLLEKDLRGKETTNGSIRYKEANNFRSLPNSHTAACKTSLNNPSISRNHPHNKSASVLESEDEHGNERGENEKSLRMRGKSGINTKVCSRGHWRPTEDAKLKELVAQFGPQNWNLISNHLLGRSGKSCRLRWFNQLDPRINKRAFTEEEEFRLLAAHRAYGNKWALISRLFPGRTDNAVKNHWHVIMARRTRESQRQRQQPPPTLSRDAEMTVSSSCRYNQGKFINEEDDDDDVSAVSTCTTELSLTPPSSAYQPRFFNYDSTLASGKDGQCVQRAEVNGIYGKKMDHQNHHTISVSERKVEMKMRSGYYYFDFLGVGAS

What was measured:
[1] = molecular target: WOX5-mV(N)/PLT3-mV(C) heterodimer (split mVenus donor) (Arabidopsis thaliana) (UniProt Q8H1D2); test: split reporter
[2] = molecular target: BRAVO-mV (BRASSINOSTEROIDS AT VASCULAR AND ORGANIZING CENTRE fused to mVenus) (Arabidopsis thaliana) (UniProt Q6R053); test: FRET or BRET
[3] = molecular target: BES1D-mV (BES1D fused to mVenus) (Arabidopsis thaliana) (UniProt Q9LN63); test: FRET or BRET
[4] = molecular target: T1, TPL-mV (TOPLESS fused to mVenus) (Arabidopsis thaliana, UniProt Q94AI7 1-1131); test: FRET or BRET
T1 sequence (looked up): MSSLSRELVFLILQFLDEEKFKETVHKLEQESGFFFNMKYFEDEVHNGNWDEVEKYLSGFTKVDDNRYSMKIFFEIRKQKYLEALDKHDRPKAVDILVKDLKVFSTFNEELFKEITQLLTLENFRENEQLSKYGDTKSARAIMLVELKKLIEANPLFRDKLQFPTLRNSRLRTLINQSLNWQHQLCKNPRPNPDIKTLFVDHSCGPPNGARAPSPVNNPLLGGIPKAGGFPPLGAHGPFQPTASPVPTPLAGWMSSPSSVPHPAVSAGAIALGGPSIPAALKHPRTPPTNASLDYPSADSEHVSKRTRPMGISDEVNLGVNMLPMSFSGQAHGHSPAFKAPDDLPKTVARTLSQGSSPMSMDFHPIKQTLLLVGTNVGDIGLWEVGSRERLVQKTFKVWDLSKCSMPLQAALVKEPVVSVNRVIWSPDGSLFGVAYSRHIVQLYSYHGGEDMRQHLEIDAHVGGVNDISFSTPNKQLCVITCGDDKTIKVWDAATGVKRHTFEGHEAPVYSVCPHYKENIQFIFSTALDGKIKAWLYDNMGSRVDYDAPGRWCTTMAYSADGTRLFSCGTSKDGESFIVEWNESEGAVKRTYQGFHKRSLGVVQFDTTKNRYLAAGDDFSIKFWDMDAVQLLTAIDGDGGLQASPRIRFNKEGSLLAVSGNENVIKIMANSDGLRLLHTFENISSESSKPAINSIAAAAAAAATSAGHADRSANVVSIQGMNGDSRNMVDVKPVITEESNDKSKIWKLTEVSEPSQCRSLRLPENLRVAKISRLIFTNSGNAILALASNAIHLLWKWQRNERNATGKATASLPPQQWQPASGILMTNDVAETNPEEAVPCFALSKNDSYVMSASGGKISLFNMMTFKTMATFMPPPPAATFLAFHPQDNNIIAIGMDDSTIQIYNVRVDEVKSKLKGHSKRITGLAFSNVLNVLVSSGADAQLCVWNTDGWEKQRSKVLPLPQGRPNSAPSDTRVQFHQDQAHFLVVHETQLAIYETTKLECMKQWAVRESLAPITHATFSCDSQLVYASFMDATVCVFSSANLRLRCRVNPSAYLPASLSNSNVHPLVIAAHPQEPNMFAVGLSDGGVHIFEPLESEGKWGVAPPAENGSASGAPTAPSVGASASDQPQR

[5] = molecular target: T2, BRAVO-mV(N)/PLT3-mV(C) heterodimer (split mVenus donor) (Arabidopsis thaliana, UniProt Q6R053 1-323; Q52QU2 1-581); test: split reporter
T2 sequence (looked up) 1: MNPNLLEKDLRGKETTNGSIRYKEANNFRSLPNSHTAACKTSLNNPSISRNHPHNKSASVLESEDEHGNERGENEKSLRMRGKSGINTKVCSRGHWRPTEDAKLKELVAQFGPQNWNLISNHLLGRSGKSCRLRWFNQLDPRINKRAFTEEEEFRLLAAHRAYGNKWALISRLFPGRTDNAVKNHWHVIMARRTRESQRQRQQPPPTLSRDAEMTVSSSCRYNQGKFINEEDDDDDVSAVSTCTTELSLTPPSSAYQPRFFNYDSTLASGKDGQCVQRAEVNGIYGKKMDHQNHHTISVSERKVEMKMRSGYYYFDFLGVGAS
T2 sequence (looked up) 2: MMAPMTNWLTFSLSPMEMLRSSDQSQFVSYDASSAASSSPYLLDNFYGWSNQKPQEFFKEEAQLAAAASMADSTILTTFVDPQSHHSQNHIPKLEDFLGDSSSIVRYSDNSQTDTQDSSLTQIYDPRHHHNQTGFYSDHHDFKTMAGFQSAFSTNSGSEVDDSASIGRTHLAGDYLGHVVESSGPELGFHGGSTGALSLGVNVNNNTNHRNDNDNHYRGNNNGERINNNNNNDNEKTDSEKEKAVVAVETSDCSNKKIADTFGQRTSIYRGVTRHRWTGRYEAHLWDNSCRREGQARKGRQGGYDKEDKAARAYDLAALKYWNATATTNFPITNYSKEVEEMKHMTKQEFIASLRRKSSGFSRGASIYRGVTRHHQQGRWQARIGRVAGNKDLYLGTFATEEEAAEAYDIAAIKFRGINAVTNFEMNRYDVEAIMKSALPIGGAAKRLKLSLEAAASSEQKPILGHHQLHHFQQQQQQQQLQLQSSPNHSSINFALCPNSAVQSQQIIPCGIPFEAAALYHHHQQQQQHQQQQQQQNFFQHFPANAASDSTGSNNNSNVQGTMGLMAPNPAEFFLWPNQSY

[6] = molecular target: T3, WOX5-mV(N)/PLT3-mV(C) heterodimer (split mVenus donor) (Arabidopsis thaliana, UniProt Q8H1D2 1-182; Q52QU2 1-581); test: split reporter
T3 sequence (looked up) 1: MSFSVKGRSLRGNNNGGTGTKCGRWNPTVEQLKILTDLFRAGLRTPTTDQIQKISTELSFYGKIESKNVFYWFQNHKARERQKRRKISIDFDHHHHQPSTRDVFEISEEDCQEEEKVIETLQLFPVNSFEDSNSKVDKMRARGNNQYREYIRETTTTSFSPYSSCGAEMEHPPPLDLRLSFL
T3 sequence (looked up) 2: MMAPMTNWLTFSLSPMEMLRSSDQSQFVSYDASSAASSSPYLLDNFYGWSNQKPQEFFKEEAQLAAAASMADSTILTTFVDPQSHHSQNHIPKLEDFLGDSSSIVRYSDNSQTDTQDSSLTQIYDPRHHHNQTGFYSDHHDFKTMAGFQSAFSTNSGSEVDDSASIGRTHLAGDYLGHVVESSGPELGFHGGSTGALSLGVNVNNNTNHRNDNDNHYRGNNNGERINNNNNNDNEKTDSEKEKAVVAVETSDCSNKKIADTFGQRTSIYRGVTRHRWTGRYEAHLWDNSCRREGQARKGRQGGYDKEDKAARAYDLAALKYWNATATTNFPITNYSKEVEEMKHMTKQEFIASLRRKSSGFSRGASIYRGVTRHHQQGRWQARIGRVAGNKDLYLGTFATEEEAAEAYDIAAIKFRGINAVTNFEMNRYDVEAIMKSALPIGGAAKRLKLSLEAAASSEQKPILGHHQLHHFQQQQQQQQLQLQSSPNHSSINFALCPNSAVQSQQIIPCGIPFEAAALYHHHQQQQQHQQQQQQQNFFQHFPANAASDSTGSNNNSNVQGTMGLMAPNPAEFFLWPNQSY

[7] = molecular target: T4, BRAVO-mV (BRASSINOSTEROIDS AT VASCULAR AND ORGANIZING CENTRE fused to mVenus) (Arabidopsis thaliana, UniProt Q6R053 1-323); test: FRET or BRET
T4 sequence (looked up): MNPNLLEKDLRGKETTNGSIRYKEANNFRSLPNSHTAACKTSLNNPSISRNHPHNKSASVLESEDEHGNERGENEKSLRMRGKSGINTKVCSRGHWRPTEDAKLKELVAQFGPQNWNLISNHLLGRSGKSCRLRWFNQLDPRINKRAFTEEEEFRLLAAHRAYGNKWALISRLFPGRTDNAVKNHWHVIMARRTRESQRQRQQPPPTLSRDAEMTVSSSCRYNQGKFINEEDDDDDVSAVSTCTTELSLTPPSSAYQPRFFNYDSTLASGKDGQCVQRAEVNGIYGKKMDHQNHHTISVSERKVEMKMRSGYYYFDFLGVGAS

Chain of BES1D-mV (BES1D fused to mVenus) (Arabidopsis thaliana) (Q9LN63 whole entry, the tested form may be a part): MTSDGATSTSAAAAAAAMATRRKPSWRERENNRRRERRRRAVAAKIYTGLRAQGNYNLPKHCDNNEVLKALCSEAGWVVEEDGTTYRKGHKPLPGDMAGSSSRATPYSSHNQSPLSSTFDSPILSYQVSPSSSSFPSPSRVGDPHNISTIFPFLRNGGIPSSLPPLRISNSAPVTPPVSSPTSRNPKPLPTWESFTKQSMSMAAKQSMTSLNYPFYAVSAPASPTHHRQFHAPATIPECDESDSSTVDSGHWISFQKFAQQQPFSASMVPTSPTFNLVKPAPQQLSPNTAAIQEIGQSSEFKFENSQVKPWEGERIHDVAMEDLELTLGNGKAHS

Row | Molecule | binding [%] (FRET-FLIM) [2] | binding [%] (BiFC-FRET) [5] | binding [%] (BiFC-FRET) [6] | binding [%] (FRET-FLIM) [7] | also measured
1 | BES1D-mCh (BRI1-EMS-SUPPRESSOR 1, BES1D form, fused to mCherry) (from UniProt Q9LN63 1-335) (natural protein) | 27.4 |  |  |  | binding [%] (BiFC-FRET) [1]: 18.7%
2 | PLT3ΔPrD-mCh (PLT3 with its prion-like domains deleted, fused to mCherry) (from UniProt Q9ZNS0 1-508) (natural protein) | 11.7 |  |  |  | 
3 | B1 |  |  |  |  | binding [%] (FRET-FLIM) [3]: 16.9%; binding [%] (FRET-FLIM) [4]: 13.5 ± 4.3%
4 | B2 |  | 21.1 ± 8.3 | 23.3 ± 8.3 | 26.7 ± 9.8 | 
5 | B3 |  | 29.8 ± 10.6 |  | 22.4 ± 14.1 | 
6 | B4 |  |  | 36.3 ± 10.7 |  | 
